The values that follow come from US20240158457A1 (published 2024).

In experiment [1] the target is T1, IL-18Rα-Fc (CD218a protein, Fc tag; ECD 19-329; ACROBiosystems, Inc, Cat. No. IL1-H5259) (UniProt Q13478 19-329).
T1 chain: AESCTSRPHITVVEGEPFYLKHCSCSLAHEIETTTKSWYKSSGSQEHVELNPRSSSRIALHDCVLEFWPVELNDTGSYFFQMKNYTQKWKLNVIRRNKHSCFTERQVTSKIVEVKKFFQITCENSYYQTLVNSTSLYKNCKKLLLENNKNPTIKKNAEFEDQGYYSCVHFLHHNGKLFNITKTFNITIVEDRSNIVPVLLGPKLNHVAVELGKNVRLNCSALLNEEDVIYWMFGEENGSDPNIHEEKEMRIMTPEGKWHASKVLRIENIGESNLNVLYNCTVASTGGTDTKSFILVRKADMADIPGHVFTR
Briefly: ELISA. On the technique in general: ELISA stands for enzyme-linked immunosorbent assay.

For experiment [2], the target named is T1, IL-18Rα-Fc (CD218a protein, Fc tag; ECD …). Briefly: competition ELISA; tracer 7C06(bn1713)/NA-HRP 75 nM.
Experiment [3] has the same target. The experiment can be described thus: competition ELISA.
Experiment [4] shares this target. Briefly: ELISA.

Where two headings read alike, the source gives them in different places. Where no end group is shown, it is not given here.

GGICWVPFHYLDELMCTGG-biotin (cysteine pairing not given here) [biotinylated 4D07]: the EC50 – broadly, the midpoint of the concentration-response curve – in experiment [1] came to 0.16 nM.
For the molecule GGFFECFYSPGHEWCIPSGG [7C06], the IC50 (as a rule, the concentration that inhibits the measured activity by half) in experiment [2] was 350 nM.
GGFFECFYSPGHEWCIPSGG-biotin (cysteine pairing not given here) [biotinylated 7C06] gave a concentration giving a half-maximal response (EC50) in experiment [1] of 0.26 nM.
On to GGREDMECFWSPGQVWCIPSYLGG [10D09], for which the 50% inhibitory concentration (IC50) in experiment [3] came to 11 nM.
For the molecule GGELCWRPFSFVDCEEGG-biotin (cysteine pairing not given here) [biotinylated alpha synthetic F1a Consensus Construct], the midpoint of the response in experiment [4], the EC50, lay at 0.11 nM. In other words, the sub-nanomolar range.
